Source: paper PMC4018528

Molecular target: recombinant His-tagged Sp4E-BP (Strongylocentrotus purpuratus 4E-BP) (Strongylocentrotus purpuratus)
Test: SPR; Sp4E-BP immobilised (60 uRIU) by amine coupling on a mixed SAM chip; Flag-MmIF4E1:m7GTP injected from 4.37 uM to 53.9 nM (3-fold dilution series); 25°C; HEPES 50 mM pH 7.7, KCl 150 mM, 0.5% Igepal; flow 25 uL/min; global fit, one step 1:1 reaction (Scrubber 2.0a)

Substance: Flag-tagged MmIF4E1 (eIF4E1 from Mus musculus), as Flag-MmIF4E1:m7GTP (from UniProt P63073 1-217) (natural protein)
- Kd: 23 nM
- koff: 0.00022 s⁻¹
- kon: 9300 M⁻¹ s⁻¹
